# Measurements published in patent publication US20250154283A1 (published 2025).
# Changes are numbered by the printed parent chain.
# T1: biotinylated human VWF cysteine knot (CK) domain construct (human, biotin on the in vitro biotinylation tag (residue not stated); one N-glycan)
# T1 construct: Disulfide-linked homodimer; also called biotinylated human VWF CK domain; human VWF CK domain construct
# T1 chain: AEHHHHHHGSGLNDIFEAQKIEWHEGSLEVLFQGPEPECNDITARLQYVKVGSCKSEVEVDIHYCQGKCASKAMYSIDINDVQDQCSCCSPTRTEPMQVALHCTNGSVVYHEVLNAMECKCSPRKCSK
# B1: Lib1_P1_A1_scFv (scFv, not shown: small tags and cut ends)
# scFv: QVQLVQSGAEVKKPGASVKVSCKVSGDTLSNYAIHWVRQAPGKGLEWMGGINPNAGTTIYAQKFQGRVTMTEDTSTDTAYMELSSLKSEDTAVYYCARDSSSWSQFGYYYYYMDVWGKGTTVTVSSSGGSTITSYNVYYTKLSSSGTDIQMTQSPSSVSASVGDRVTITCRASQSIGDFLAWYQQKPGKAPKLLIYDASHLQTGVPSRFSGSGSGTDFTLTISSLQPEDFANYYCQQTSTIPPTFGGGTKVEIK
# B2: 189_Lib4_scFv (scFv, not shown: small tags and cut ends)
# scFv: QVQLQESGPGLVKPSQTLSLTCTVSGVTFSSYGWSWIRQPPGKGLEWIGYVDTSGSTDYNPSLKSRVTMSVDTSKNQFSLKVNSVTAADTAVYYCARTTYYYDSSGFARGWFDPWGQGTLVTVSSSGGSTITSYNVYYTKLSSSGTEIVMTQSPATLSLSPGERATLSCRASQSVPSSHLAWYQQKPGQAPRLLIYDATNRAAGIPARFSGSGSGTDFTLTISSLEPEDFAVYYCQQYDNWPSPSFGGGTKVEIK
# B3: 4142_Lib1_scFv (scFv, not shown: small tags and cut ends)
# scFv: QVQLVQSGAEVKKPGASVKVSCKVSGYPFTSSGIHWVRQAPGKGLEWMGGVIPLFGTANYAQKFQGRVTMTEDTSTDTAYMELSSLKSEDTAVYYCARIRVSSGWYRDYGMDVWGQGTTVTVSSSGGSTITSYNVYYTKLSSSGTDIQMTQSPSSVSASVGDRVTITCRASQDITNDLAWYQQKPGKAPKLLIYDASRLQSGVPSRFSGSGSGTDFTLTISSLQPEDFANYYCQQTFTTPLTFGGGTKVEIK
# B4: 4029_Lib1_scFv (scFv, not shown: small tags and cut ends)
# scFv: B3 scFv with D173S, T175G, N176D, D177F, R198H, S201T, F237S, T239I, L241P
# B5: Lib4_P2_A3_scFv (scFv, not shown: small tags and cut ends)
# scFv: QVQLQESGPGLVKPSQTLSLTCTVSGVSLSTSDYSWSWIRQPPGKGLEWIGYISPPGRSDYNPSLKSRVTMSVDTSKNQFSLKVNSVTAADTAVYYCARHSSSGWYSTYDFDSWGQGTMVTVSSSGGSTITSYNVYYTKLSSSGTEIVMTQSPATLSLSPGERATLSCRASQNIHSNLAWYQQKPGQAPRLLIYGATTRATGIPARFSGSGSGTDFTLTISSLEPEDFAVYYCQQSYTTPLTFGGGTKVEIK
# B6: Lib4_P2_B4_scFv (scFv, not shown: small tags and cut ends)
# scFv: QVQLQESGPGLVKPSQTLSLTCTVSGASLGDQYWSWIRQPPGKGLEWIGYIHPSGDFDYNPSLKSRVTMSVDTSKNQFSLKVNSVTAADTAVYYCARHYSSSWYGTWYFDLWGRGTLVTVSSSGGSTITSYNVYYTKLSSSGTEIVMTQSPATLSLSPGERATLSCRASQNIGTNLAWYQQKPGQAPRLLIYDASVRAAGIPARFSGSGSGTDFTLTISSLEPEDFAVYYCQQSLTTPLTFGGGTKVEIK
# B7: 3964_Lib4_scFv (scFv, not shown: small tags and cut ends)
# scFv: QVQLQESGPGLVKPSQTLSLTCTVSGASISTHSWSWIRQPPGKGLEWIGYINPSGDIDYNPSLKSRVTMSVDTSKNQFSLKVNSVTAADTAVYYCARGRTGFDSSGFVVGAFDIWGQGTMVTVSSSGGSTITSYNVYYTKLSSSGTEIVMTQSPATLSLSPGERATLSCRASQNVNDNLAWYQQKPGQAPRLLIYDASTRPTGIPARFSGSGSGTDFTLTISSLEPEDFAVYYCQQYLTIPRTFGGGTKVEIK
# B8: Lib1_P1_C6_scFv (scFv, not shown: small tags and cut ends)
# scFv: QVQLVQSGAEVKKPGASVKVSCKVSGYTFASHYIHWVRQAPGKGLEWMGGMDPATGQTIYAQKFQGRVTMTEDTSTDTAYMELSSLKSEDTAVYYCAKGDRSSWYEVLSFQHWGQGTLVTVSSSGGSTITSYNVYYTKLSSSGTDIQMTQSPSSVSASVGDRVTITCRASQGISTDLAWYQQKPGKAPKLLIYDASILQRGVPSRFSGSGSGTDFTLTISSLQPEDFANYYCQQVRTYPFTFGGGTKVEIK
# B9: 96_Lib4_scFv (scFv, not shown: small tags and cut ends)
# scFv: QVQLQESGPGLVKPSQTLSLTCTVSGESFSTSYWSWIRQPPGKGLEWIGYITHSGYTDYNPSLKSRVTMSVDTSKNQFSLKVNSVTAADTAVYYCARGGRFPFWYFDLWGRGSLVTVSSSGGSTITSYNVYYTKLSSSGTEIVMTQSPATLSLSPGERATLSCRASRSIGSNLAWYQQKPGQAPRLLIYGATTRATGIPARFSGSGSGTDFTLTISSLEPEDFAVYYCQQYKNDATFGGGTKVEIK
# B10: 4166_Lib4_scFv (scFv, not shown: small tags and cut ends)
# scFv: QVQLQESGPGLVKPSQTLSLTCTVSGESFSGHFWSWIRQPPGKGLEWIGYISQSGRTDYNPSLKSRVTMSVDTSKNQFSLKVNSVTAADTAVYYCARTLPRIQLWSPRGAFDIWGQGTMVTVSSSGGSTITSYNVYYTKLSSSGTEIVMTQSPATLSLSPGERATLSCRASQSLGRSLAWYQQKPGQAPRLLIYDASHRATGIPARFSGSGSGTDFTLTISSLEPEDFAVYYCQQYVSYPLTFGGGTKVEIK
# B11: 256_Lib8_scFv (scFv, not shown: small tags and cut ends)
# scFv: EVQLVESGGGLVQPGRSLRLSCAASGFTVSSNAMHWVRQAPGKGLEWVSAIGTFADTDYADSVEGRFTISRDNAKNSLYLQMNSLRAEDTAVYYCAREGAAAGTNFDYWGQGTLVTVSSSGGSTITSYNVYYTKLSSSGTDIQMTQSPSSLSASVGDRVTITCRASQGIRSYLAWYQQKPGKAPKLLIYGASTLEGGVPSRFSGSGSGTDFTLTISSLQPEDVATYYCQQSYSTPPKFGGGTKVEIK
# B12: 2738_Lib1_scFv (scFv, not shown: small tags and cut ends)
# scFv: QVQLVQSGAEVKKPGASVKVSCKVSGYTLTDLPIHWVRQAPGKGLEWMGGINPFLGTTIYAQKFQGRVTMTEDTSTDTAYMELSSLKSEDTAVYYCARGVDMLATARDYYYMAIWGKGTTVTVSSSGGSTITSYNVYYTKLSSSGTDIQMTQSPSSVSASVGDRVTITCRASQSIGNDLAWYQQKPGKAPKLLIYGASMRATGVPSRFSGSGSGTDFTLTISSLQPEDFANYYCQQYASDPLTFGGGTKVEIK
# B13: Lib1_P1_D1_scFv (scFv, not shown: small tags and cut ends)
# scFv: QVQLVQSGAEVKKPGASVKVSCKVSGDTFTDRYIHWVRQAPGKGLEWMGGINTIFGTAIYAQKFQGRVTMTEDTSTDTAYMELSSLKSEDTAVYYCAREGATVSTNFDYWGQGTLVTVSSSGGSTITSYNVYYTKLSSSGTDIQMTQSPSSVSASVGDRVTITCRASQDIRKSLAWYQQKPGKAPKLLIYDISNRPSGVPSRFSGSGSGTDFTLTISSLQPEDFANYYCQQGYSAPYGFGGGTKVEIK
# B14: 3552_Lib8_scFv (scFv, not shown: small tags and cut ends)
# scFv: EVQLVESGGGLVQPGRSLRLSCAASEFTFGDYDMHWVRQAPGKGLEWVSAISSSGSNRDYADSVEGRFTISRDNAKNSLYLQMNSLRAEDTAVYYCARDAWFGDAFDIWGQGTMVTVSSSGGSTITSYNVYYTKLSSSGTDIQMTQSPSSLSASVGDRVTITCRASESVSSWLAWYQQKPGKAPKLLIYGASTLEGGVPSRFSGSGSGTDFTLTISSLQPEDVATYYCQQSYSFPDFGGGTKVEIK
# B15: 487_Lib1_scFv (scFv, not shown: small tags and cut ends)
# scFv: QVQLVQSGAEVKKPGASVKVSCKVSGYTFTSHIIHWVRQAPGKGLEWMGGMNPYSNKAIYAQKFQGRVTMTEDTSTDTAYMELSSLKSEDTAVYYCARDASDYGDYGYYYYYMDVWGKGTTVTVSSSGGSTITSYNVYYTKLSSSGTDIQMTQSPSSVSASVGDRVTITCRASQSIGDFLAWYQQKPGKAPKLLIYDASHLQTGVPSRFSGSGSGTDFTLTISSLQPEDFANYYCQQTSTIPPTFGGGTKVEIK
# B16: 4035_Lib1_scFv (scFv, not shown: small tags and cut ends)
# scFv: QVQLVQSGAEVKKPGASVKVSCKVSGYAFPSYGIHWVRQAPGKGLEWMGGISAFTGDTIYAQKFQGRVTMTEDTSTDTAYMELSSLKSEDTAVYYCASGPTNVLTGLMESAEYFQHWGQGTLVTVSSSGGSTITSYNVYYTKLSSSGTDIQMTQSPSSVSASVGDRVTITCRASQGISRDLAWYQQKPGKAPKLLIYGASGRATGVPSRFSGSGSGTDFTLTISSLQPEDFANYYCQQSYITPTTFGGGTKVEIK
# B17: Lib6_P3_B9_scFv (scFv, not shown: small tags and cut ends)
# scFv: EVQLVQSGAEVKKPGASVKVSCKASGDTFSSHVISWVRQAPGQGLEWMGGINPRTGTTIYAQKLQGRGTMTTDPSTSTAYMELRSLRSDDTAVYYCARTRPWAGLDVWGQGTTVTVSSSGGSTITSYNVYYTKLSSSGTESALTQPASVSGSPGQSITISCTGTNIEYKGVSWYQQHPGKAPKLMIYGVDKRPSGVSNRFSGSKSGNTASLTISGLQAEDEADYYCQAWGTSTAIFGGGTKLTVL
# B18: Lib1_P1_E9_scFv (scFv, not shown: small tags and cut ends)
# scFv: QVQLVQSGAEVKKPGASVKVSCKVSGYTFTSHIIHWVRQAPGKGLEWMGGMNPYSNKAIYAQKFQGRVTMTEDTSTDTAYMELSSLKSEDTAVYYCARDASDYGDYGYYYYYMDVWGKGTTVTVSSSGGSTITSYNVYYTKLSSSGTDIQMTQSPSSVSASVGDRVTITCRASQYIGNDLAWYQQKPGKAPKLLIYEASQRPSGVPSRFSGSGSGTDFTLTISSLQPEDFANYYCQQQYNYPLTFGGGTKVEIK
# B19: Lib4_P2_A1_scFv (scFv, not shown: small tags and cut ends)
# scFv: QVQLQESGPGLVKPSQTLSLTCTVSGASFGDNYWSWIRQPPGKGLEWIGYIDTSGSSDYNPSLKSRVTMSVDTSKNQFSLKVNSVTAADTAVYYCARVSWGYYAMDVWGQGTTVTVSSSGGSTITSYNVYYTKLSSSGTEIVMTQSPATLSLSPGERATLSCRASQGISGRLAWYQQKPGQAPRLLIYDVSTRATGIPARFSGSGSGTDFTLTISSLEPEDFAVYYCQQYDTSAPLTFGGGTKVEIK
# B20: Lib4_P2_A5_scFv (scFv, not shown: small tags and cut ends)
# scFv: QVQLQESGPGLVKPSQTLSLTCTVSGSSISSSSDYWSWIRQPPGKGLEWIGYIDISGDADYNPSLKSRVTMSVDTSKNQFSLKVNSVTAADTAVYYCARHLSSGWYGTYYFDYWGQGTLVTVSSSGGSTITSYNVYYTKLSSSGTEIVMTQSPATLSLSPGERATLSCRASQNIHSNLAWYQQKPGQAPRLLIYDASSRATGIPARFSGSGSGTDFTLTISSLEPEDFAVYYCQQGYTKPLTFGGGTKVEIK
# Target: T1, biotinylated human VWF cysteine knot …
# Assay: SPR, scFv captured on anti-SV5, pH 7.4
row,binding result,Binder
1,binds,B1
2,binds,B2
3,binds,B3
4,binds,B4
5,binds,B5
6,binds,B6
7,binds,B7
8,binds,B8
9,binds,B9
10,binds,B10
11,binds,B11
12,binds,B12
13,binds,B13
14,binds,B14
15,binds,B15
16,binds,B16
17,binds,B17
18,binds,B18
19,binds,B19
20,binds,B20
